Positions count from the first letter of the chain named. Where two headings read alike, the source gives them in different places. One block for each binder: values may come before it.
How the values were obtained:
[1] = molecular target: Rhesus monkey CD40 extracellular domain (recombinant) (Rhesus monkey) (UniProt F6SNI1); experiment: ELISA, plate coated with recombinant rhesus monkey CD40 extracellular domain, antibody in serial dilution, anti-human IgG-HRP, OD450
[2] = molecular target: human CD40 extracellular domain (recombinant) (human) (UniProt P25942); experiment: SPR, Biacore 8K; antibody on CM5 chip, hCD40 at various concentrations
[3] = molecular target: human CD40 extracellular domain (recombinant) (human) (UniProt P25942); experiment: ELISA, plate coated with recombinant human CD40 extracellular domain, antibody in serial dilution, anti-human IgG-HRP, OD450
[4] = molecular target: Rhesus monkey CD40 extracellular domain (recombinant) (Rhesus monkey) (UniProt F6SNI1); experiment: ELISA; CD40 extracellular domain coated 0.1 µg/well, antibody titrated from 10 µg/mL 1:3, anti-human IgG-HRP
[5] = molecular target: human CD40 extracellular domain (recombinant) (human) (UniProt P25942); experiment: as above
human CD40 on cells [6] = molecular target: T1, human CD40 on cells (human, UniProt P25942 21-277); experiment: cell-based or functional assay
[7] = molecular target: T2, human CD40 extracellular domain (recombinant) (human, UniProt P25942 21-193); experiment: SPR, Biacore 8K; antibody on CM5 chip, hCD40 at various concentrations
T2 construct: Extracellular domain expressed in 293F cells; also called hCD40; CD40-His; not shown: tag (His, Avi-His, mouse Fc or human Fc)
Experimental: The binding affinity of the optimized anti-CD40 antibodies with human […] was characterized using Biacore 8K (GE). Anti-CD4 (antibodies were stabilized on sensor chip CM5 The affinities for hCD40 at various concentrations were measured. Using the SPR technology, the association and dissociation rates were measured, and binding affinity was determined.

human TNFRSF11A = molecular target: T3, human TNFRSF11A (human, UniProt Q9Y6Q6 30-212); experiment: ELISA; protein coated, antibody titrated, anti-human IgG-HRP
T3 construct: Bought protein coated on the ELISA plate; also called TNFRSF11A (Sino biological, 16078-h08h)
T3 sequence (looked up): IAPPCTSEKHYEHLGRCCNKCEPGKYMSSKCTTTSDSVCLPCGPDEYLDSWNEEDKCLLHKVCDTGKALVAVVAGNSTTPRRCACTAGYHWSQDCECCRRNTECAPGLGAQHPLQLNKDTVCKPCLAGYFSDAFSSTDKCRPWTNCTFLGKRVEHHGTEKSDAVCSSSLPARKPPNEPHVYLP
Experimental: (§1) The cross-reactivities between anti-CD40 antibodies and the protein homologous with CD40 were detected. It was well known that there is high sequence homology among TNFR superfamily members. When compared with CD40 sequence. TNFRSF11A (38.95% homology) and INFR2 (37.20% homology) are with the highest homology. The cross-reactions between the two proteins and anti-CD40 antibody were detected by ELISA. respectively. Briefly, human TNFRSF11A (Sino biological, 16078-h08h), human TNFR2 (Sino biological, 10417-h08h) or the human CD40 extracellular domain protein prepared in example 1 was coated on ELISA plate and incubated at 4° C. overnight, respectively. After serial dilution, the optimized full-length anti-CD40 antibodies were added into 96 well plates and incubated respectively. After washing with TBST solution, the anti-human IgG-HRP antibody was added and incubated at RT. After washing with PBST, TMB was added into each well for development. Plates were read for the absorbance at 450 nm.

human TNFR2 = molecular target: T4, human TNFR2 (human, UniProt P20333 23-257); experiment: as above
T4 construct: Bought protein coated on the ELISA plate; also called TNFR2 (Sino biological, 10417-h08h); INFR2
T4 sequence (looked up): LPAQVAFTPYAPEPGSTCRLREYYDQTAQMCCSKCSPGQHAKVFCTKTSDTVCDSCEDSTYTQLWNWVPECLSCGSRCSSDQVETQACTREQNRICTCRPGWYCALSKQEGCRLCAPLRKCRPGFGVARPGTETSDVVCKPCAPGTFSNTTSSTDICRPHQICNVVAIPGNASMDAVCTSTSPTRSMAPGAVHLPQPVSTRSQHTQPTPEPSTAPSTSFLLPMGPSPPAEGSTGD
Experimental: as §1

[8] = molecular target: T5, Rhesus monkey CD40 extracellular domain (recombinant) (Rhesus monkey, UniProt F6SNI1 21-193); experiment: ELISA, plate coated with recombinant rhesus monkey CD40 extracellular domain, antibody (human IgG4 format) in serial dilution, anti-human IgG-HRP, OD450
T5 construct: extracellular domain; also called RheCD40
Experimental: (§2) ELISA Binding Assay: The selected monoclonal full-length antibodies D1, D2, D3, D5, D6, or D7 were subjected to binding assays with CD40 extracellular domain of different species, respectively. The assay was designed to identify full-length antibodies that cross-reacted with CD40 of different species. Briefly, the human or Rhesus monkey CD40 prepared in example 1 was dissolved in PBS and coated on […] with 0.1 μg/well followed by incubation at 4° C. overnight. The 96-well plates were washed with TBST before adding antibodies, blocked with 5% milk for 1-2 h at 37° C., and washed again with TBST. Firstly, each antibody sample was diluted to 10 μg/mL, and then serially diluted at a 1:3 ratio. 100 μL of serially diluted antibodies were added to each well and incubated for 1 h at 37° C. After washing with TBST for 6 times, 100 μL of the secondary antibody (goat anti-human IgG-HRP (Sigma. A8667)) was added to each well and incubated for 1 h at 37° C. After washing with TBST for 3 times, TMB was added with 100 μL/well and incubated for 10-20 minutes at 37° C. 2M H₂SO₄ was used to stop the reaction and plates were read for the absorbance at 450 nm. The ELISA results were then analyzed and the binding curves were generated by PRISM.
(§3) The biding affinity of the optimized full length CD40 antibodies with human or rhesus monkey CD40 was evaluated by Elisa according to the corresponding protocol as described in Example 2, and ASKP1240 was used as control.

human CD40 on cells [9] = molecular target: T1, human CD40 on cells; experiment: cell-based or functional assay; remark: listed apart in the source
[10] = molecular target: T2, human CD40 extracellular domain …; experiment: ELISA, plate coated with recombinant human CD40 extracellular domain, antibody (human IgG4 format) in serial dilution, anti-human IgG-HRP, OD450
Experimental: as §2, §3

[11] = molecular target: T5, Rhesus monkey CD40 extracellular domain …; experiment: ELISA; CD40 extracellular domain coated 0.1 µg/well, antibody titrated from 10 µg/mL 1:3, anti-human IgG-HRP
Experimental: as §2

[12] = molecular target: T2, human CD40 extracellular domain …; experiment: as above
Experimental: as §2

human CD40 on cells [13] = molecular target: T1, human CD40 on cells; experiment: cell-based or functional assay; remark: listed apart in the source

Sequence of human CD40 extracellular domain (recombinant) (human) (P25942 21-193): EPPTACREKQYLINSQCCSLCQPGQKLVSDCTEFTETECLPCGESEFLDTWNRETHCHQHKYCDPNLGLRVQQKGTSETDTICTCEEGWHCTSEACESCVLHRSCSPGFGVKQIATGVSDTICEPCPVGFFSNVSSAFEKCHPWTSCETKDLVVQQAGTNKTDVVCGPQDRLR
T2 sequence (P25942 21-193): as above
T1 sequence (P25942 21-277 limits assumed): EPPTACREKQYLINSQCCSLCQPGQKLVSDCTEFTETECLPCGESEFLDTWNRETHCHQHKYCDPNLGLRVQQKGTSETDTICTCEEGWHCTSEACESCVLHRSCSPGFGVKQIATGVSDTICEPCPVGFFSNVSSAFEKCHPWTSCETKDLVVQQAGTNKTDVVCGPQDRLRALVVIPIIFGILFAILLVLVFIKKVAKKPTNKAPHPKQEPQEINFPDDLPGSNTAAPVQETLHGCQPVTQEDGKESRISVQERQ
Sequence of Rhesus monkey CD40 extracellular domain (recombinant) (Rhesus monkey) (F6SNI1 entry or part of it): as the sequence (P25942 21-193) above, with G43S, H56R, W89L, T92M, A95S, L101P, S106L, H142R, L172Q counted along it

EC50 (read off the curve) [1]: 0.1 µg/mL | Kd [2]: 2.07 nM | koff [2]: 0.000617 s⁻¹ | kon [2]: 298000 M⁻¹ s⁻¹ | EC50 (read off the curve) [3]: 0.1 µg/mL | EC50 [4]: 0.181 µg/mL | EC50 [5]: 0.211 µg/mL | IC50, HEK-Blue CD40L NF-κB activation assay (SEAP) (human CD40 on cells [6]): 0.0134 µg/mL | IC50, HEK-Blue CD40L NF-κB activation assay (SEAP), Fc-3*G4S-CD40L stimulus (human CD40 on cells [6]): 0.0111 µg/mL
B1: ASKP1240 (antibody, INN chains, looked up, V domains shown)
VH: QLQLQESGPGLLKPSETLSLTCTVSGGSISSPGYYGGWIRQPPGKGLEWIGSIYKSGSTYHNPSLKSRVTISVDTSKNQFSLKLSSVTAADTAVYYCTRPVVRYFGWFDPWGQGTLVTVSS
VL: AIQLTQSPSSLSASVGDRVTITCRASQGISSALAWYQQKPGKAPKLLIYDASNLESGVPSRFSGSGSGTDFTLTISSLQPEDFATYYCQQFNSYPTFGQGTKVEIK
modifications: IgG4

Kd [7]: 1.59 nM | koff [7]: 0.000303 s⁻¹ | kon [7]: 191000 M⁻¹ s⁻¹ | binding result (human TNFRSF11A): no binding (tested: 10 µg/mL) | binding result (human TNFR2): no binding (tested: 10 µg/mL) | EC50 (read off the curve) [8]: ~0.1 µg/mL | IC50, HEK-Blue CD40L NF-κB activation assay (SEAP), antibody as human IgG4 (human CD40 on cells [9]): 0.0114 µg/mL | EC50 (read off the curve) [10]: ~0.2 µg/mL
B4: D47 (antibody, human IgG4, V domains shown)
VH: QVQLVQSGAEVKKPGASVKVSCKASVYSFTGYTVNWVRQAPGQRLEWMGLINPYTGGTTYNQKFKGRVTLTIDKSASTAYMELSSLRSEDTAVYYCASSYYSNPYASDYWGQGTLVTVSS
VL: EIVMTQSPATLSVSPGERATLSCKASQNVHTRVAWYQQKPGQAPRLLIYLASDRRTGIPARFSGSGSGTEFTLTISSLQSEDFAVYYCLQHWTYPLTFGQGTKVEIK
notes: also called optimized anti-CD40 antibody D47

Further lines, the binder ahead of its results:

B2: D42 (antibody, V domains shown)
VH: B4 VH with N52V, T55N, Y100R, S107M
VL: B4 VL with T93N
notes: also called optimized anti-CD40 antibody D42
Kd [7]: 1.26 nM | koff [7]: 0.000277 s⁻¹ | kon [7]: 221000 M⁻¹ s⁻¹ | binding result (human TNFRSF11A): no binding (tested: 10 µg/mL) | binding result (human TNFR2): no binding (tested: 10 µg/mL) | EC50 (read off the curve) [8]: ~0.1 µg/mL | IC50, HEK-Blue CD40L NF-κB activation assay (SEAP), antibody as human IgG4 (human CD40 on cells [9]): 0.00962 µg/mL | EC50 (read off the curve) [10]: ~0.2 µg/mL

B3: D33 (antibody, human IgG4, V domains shown)
VH: B4 VH with Y54L, T55N, N103T, S107M
VL: B4 VL with T93N
notes: also called optimized anti-CD40 antibody D33
Kd [7]: 1.63 nM | koff [7]: 0.000494 s⁻¹ | kon [7]: 304000 M⁻¹ s⁻¹ | binding result (human TNFRSF11A): no binding (tested: 10 µg/mL) | binding result (human TNFR2): no binding (tested: 10 µg/mL) | EC50 (read off the curve) [8]: ~0.1 µg/mL | IC50, HEK-Blue CD40L NF-κB activation assay (SEAP), antibody as human IgG4 (human CD40 on cells [9]): 0.0122 µg/mL | EC50 (read off the curve) [10]: ~0.2 µg/mL

B5: D5 (antibody, V domains shown)
VH: EVQLQQSGAELVSPGVSVKISCKGSGYTFTDHGMHWVKQSHAKSLEWIGVISTSYGVATYNQKFKGKATLSVDKSSSTAYLELARLTSEDSAIYYCARRDSKSPFDYWGQGTTLTVSS
VL: QIVLTQSPAIMSASPGEKITITCSASSSISSNYLHWYQQKPGFSPKLLIYRTSNLASGVPARFSGSGSGTSYSLTISSMEAEDAATYYCHQYHRSPLTFGAGTKLELK
notes: Full-length chimeric antibody: mouse variable domains with a human IgG1 or IgG4 heavy chain constant domain and a human kappa light chain constant domain; also called anti-CD40 antibody D5
EC50 [11]: 0.627 µg/mL | EC50 [12]: 0.274 µg/mL | IC50, HEK-Blue CD40L NF-κB activation assay (SEAP), Fc-3*G4S-CD40L stimulus (human CD40 on cells [13]): 0.0142 µg/mL

Source: patent US20240343817A1 (STAIDSON BEIJING BIOPHARMACEUTICALS, published 2024)
